# From publication PMC5009318, “Structural insights into the IgE mediated responses induced by the allergens Hev b 8 and Zea m 12 in their dimeric forms” (Scientific Reports, 2016)
# Several values for one entry are separate records, joined by “and”; a condition that tells them apart may be missing. Identical values can stand only once.
# Molecular target: the molecule itself
# Experiment: SEC; HiLoad 16/60 Superdex 75, 50 mM Tris-HCl pH 7.5; samples incubated 1 week at 4 °C and applied at 10 mg/mL; calibrated with myoglobin, alpha-chymotrypsin and BSA
protein,measurement,value
"recombinant profilin allergen rHev b 8 (isoform Hev b 8.0102) from Hevea brasiliensis (natural protein, Cloned in pET28c; The dimer is held by a disulfide bridge between Cys13 of both chains; also called monomeric rHev b 8; dimeric rHev b 8; source: E. coli Rosetta (DE3), purified (Ni-NTA, enterokinase cleavage, mono Q anion exchange; oligomers separated by SEC)) MSWQAYVDDHLMCEIEGNHLSAAAIIGQDGSVWAQSANFPQFKSEEITGIMSDFHEPGTLAPTGLYIGGTKYMVIQGEPGAVIRGKKGPGGVTVKKTNQALIIGIYDEPMTPGQCNMIVERLGDYLIDQGY",stoichiometry N,2 and 3 and 4
